From patent publication US20070089183A1, “Size and/or growth engineering by modulation of the interaction between calmodulin, and brassinosteroid biosynthetic enzymes and orthologs therof” (Washington State University, priority 2005, published 2007)

Test system: Ca^2+/CaM
Test: gel mobility shift assay of BR biosynthetic proteins
Type: binding, potato
Details: FIG. 5
From the text: PCM1: potato calmodulin 1; PCM6: potato calmodulin 6. Sequences of respective CaMBD are also shown: N-DWF4 (SEQ ID NO:18); C-DWF4 (SEQ ID NO:19); CPD (SEQ ID NO:17); and DWF5 (SEQ ID NO:20).
DWF1Ca^2+ is an important second messenger and an integral part of the cellular signalling system in plants^5,29. Applicants were thus prompted to survey the CaM-binding properties of other proteins involved in brassinosteroid biosynthesis.

Row | Ca^2+/CaM binding | Molecule
1 | Ca^2+/CaM-binding proteins | DWF4: Arabidopsis brassinosteroid biosynthetic enzyme DWF4 (AT3G50660) (protein, listed as Arabidopsis thaliana) MFETEHHTLLPLLLLPSLLSLLLFLILLKRRNRKTRFNLPPGKSGWPFLGETIGYLKPYTATTLGDFMQQHVSKYGKIYRSNLFGEPTIVSADAGLNRFILQNEGRLFECSYPRSIGGILGKWSMLVLVGDMHRDMRSISLNFLSHARLRTILLKDVERHTLFVLDSWQQNSIFSAQDEAKKFTFNLMAKHIMSMDPGEEETEQLKKEYVTFMKGVVSAPLNLPGTAYHKALQSRATILKFIERKMEERKLDIKEEDQEEEEVKTEDEAEMSKSDHVRKQRTDDDLLGWVLKHSNLSTEQILDLILSLLFAGHETSSVAIALAIFFLQACPKAVEELREEHLEIARAKKELGESELNWDDYKKMDFTQCVINETLRLGNVVRFLHRKALKDVRYKGYDIPSGWKVLPVISAVHLDNSRYDQPNLFNPWRWQQQNNGASSSGSGSFSTWGNNYMPFGGGPRLCAGSELAKLEMAVFIHHLVLKFNWELAEDDQPFAFPFVDFPNGLPIRVSRIL
2 | Ca^2+/CaM-binding proteins | DWF5: Arabidopsis DWF5 (AT1G50430), sterol Δ7 reductase (protein, listed as Arabidopsis thaliana) MAETVHSPIVTYASMLSLLAFCPPFVILLWYTMVHQDGSVTQTFGFFWENGVQGLINIWPRPTLIAWKIIFCYGAFEAILQLLLPGKRVEGPISPAGNRPVYKANGLAAYFVTLATYLGLWWFGIFNPAIVYDHLGEIFSALIFGSFIFCVLLYIKGHVAPSSSDSGSCGNLIIDFYWGMELYPRIGKSFDIKVFTNCRFGMMSWAVLAVTYCIKQYEINGKVSDSMLVNTILMLVYVTKFFWWEAGYWNTMDIAHDRAGFYICWGCLVWVPSVYTSPGMYLVNHPVELGTQLAIYILVAGILCIYINYDCDRQRQEFRRTNGKCLVWGRAPSKIVASYTTTSGETKTSLLLTSGWWGLARHFHYVPEILSAFFWTVPALFDNFLAYFYVIFLTLLLFDRAKRDDDRCRSKYGKYWKLYCEKVKYRIIPGIY
3 | Ca^2+/CaM-binding proteins | CPD: Arabidopsis CPD (AT5G05690), cytochrome P450 90A1 (protein, listed as Arabidopsis thaliana) MAFTAFLLLLSSIAAGFLLLLRRTRYRRMGLPPGSLGLPLIGETFQLIGAYKTENPEPFIDERVARYGSVFMTHLFGEPTIFSADPETNRFVLQNEGKLFECSYPASICNLLGKHSLLLMKGSLHKRMHSLTMSFANSSIIKDHLMLDIDRLVRFNLDSWSSRVLLMEEAKKITFELTVKQLMSFDPGEWSESLRKEYLLVIEGFFSLPLPLFSTTYRKAIQARRKVAEALTVVVMKRREEEEEGAERKKDMLAALLAADDGFSDEEIVDFLVALLVAGYETTSTIMTLAVKFLTETPLALAQLKEEHEKIRAMKSDSYSLEWSDYKSMPFTQCVVNETLRVANIIGGVFRRAMTDVEIKGYKIPKGWKVFSSFRAVHLDPNHFKDARTFNPWRWQSNSVTTGPSNVFTPFGGGPRLCPGYELARVALSVFLHRLVTGFSWVPAEQDKLVFFPTTRTQKRYPIFVKRRDFAT
